Laboratory results taken from US20220289816A1, “IMMUNOTHERAPY WITH B*07 RESTRICTED PEPTIDES AND COMBINATION OF PEPTIDES AGAINST CANCERS AND RELATED METHODS” (Immatics Biotechnologies GmbH, priority 2018, published 2022).

Target: HLA-B*07 (Homo sapiens, UniProt P01889)
Assay: MHC binding assay (UV-ligand exchange, ELISA of stabilized MHC complexes)
Conditions: peptide exchange yield on HLA-B*07, UV-ligand exchange
Text: Candidate peptides for T cell based therapies according to the present invention were further tested for their MHC binding capacity (affinity). The individual peptide-MHC complexes were produced by UV-ligand exchange, where a UV-sensitive peptide is cleaved upon UV-irradiation and exchanged with the peptide of interest as analyzed. Only peptide candidates that can effectively bind and stabilize the peptide-receptive MHC molecules prevent dissociation of the MHC complexes. To determine the yield of the exchange reaction, an ELISA was performed based on the detection of the light chain (β2m) of stabilized MHC complexes. The assay was performed as generally described in Rodenko et al. (Rodenko et al., 2006)
96 well MAXISorp plates (NUNC) were coated over night with 2 ug/ml streptavidin in PBS at room temperature, washed 4× and blocked for 1 h at 37° C. in 2% BSA containing blocking buffer. […] Peptide-MHC monomers of the UV-exchange reaction were diluted 100-fold in blocking buffer. Samples were incubated for 1 h at 37° C., washed four times, incubated with 2 ug/ml HRP conjugated anti-[…] for 1 h at 37° C., washed again and detected with TMB solution that is stopped with […]. Absorption was measured at 450 nm. Candidate peptides that show a high exchange yield (preferably higher than 50%, most preferred higher than 75%) are generally preferred for a generation and production of antibodies or fragments thereof, and/or T cell receptors or fragments thereof, as they show sufficient avidity to the MHC molecules and prevent dissociation of the MHC complexes.

Peptide exchange | Substance
+++ (>50 = +++) | 54 (VPSCGRSVEGL; listed as Homo sapiens) [compound 54]
++++ (>75% = ++++) | 369 (RPYGCVLRAA; listed as Homo sapiens) [compound 369]
+ (>10% = +) | 127 (KSKQVITLL; listed as Homo sapiens) [compound 127]
++ (>20% = ++) | 89 (FLIPRAGWLAGL; listed as Homo sapiens) [compound 89]
+++ (>50 = +++) | 208 (RNRQVATAL; listed as Homo sapiens) [compound 208]
++++ (>75% = ++++) | 320 (APMHIDRNIL; listed as Homo sapiens) [compound 320]
+++ (>50 = +++) | 271 (SPTPVFTTL; listed as Homo sapiens) [compound 271]
++++ (>75% = ++++) | 330 (RPFSAIAEL; listed as Homo sapiens) [compound 330]
++ (>20% = ++) | 263 (SQRPPATSQA; listed as Homo sapiens) [compound 263]
+++ (>50 = +++) | 171 (LPLGGHKSL; listed as Homo sapiens) [compound 171]
++ (>20% = ++) | 161 (ASKILETSL; listed as Homo sapiens) [compound 161]
++++ (>75% = ++++) | 455 (FPVQATIDF; listed as Homo sapiens) [compound 455]
+++ (>50 = +++) | 121 (GPFQRAAL; listed as Homo sapiens) [compound 121]
+++ (>50 = +++) | 342 (RPRPPKVL; listed as Homo sapiens) [compound 342]
+++ (>50 = +++) | 75 (HVRPQTNCI; listed as Homo sapiens) [compound 75]
+++ (>50 = +++) | 8 (MPKTNLSKM; listed as Homo sapiens) [compound 8]
+++ (>50 = +++) | 265 (FPRKPYEGRV; listed as Homo sapiens) [compound 265]
++++ (>75% = ++++) | 293 (FPYDKPLIM; listed as Homo sapiens) [compound 293]
++ (>20% = ++) | 199 (SPFWIHQA; listed as Homo sapiens) [compound 199]
++++ (>75% = ++++) | 44 (SPSQTVQRAV; listed as Homo sapiens) [compound 44]
++++ (>75% = ++++) | 140 (TPFPDIHWF; listed as Homo sapiens) [compound 140]
+++ (>50 = +++) | 152 (SSASFSSELFRH; listed as Homo sapiens) [compound 152]

Peptide exchange | Substance
+++ (>50 = +++) | 178 (VPYYPRANL; listed as Homo sapiens) [compound 178]
++++ (>75% = ++++) | 254 (RVIQGTTTL; listed as Homo sapiens) [compound 254]
+++ (>50 = +++) | 108 (APRGSPPI; listed as Homo sapiens) [compound 108]
+++ (>50 = +++) | 267 (MPVPGILL; listed as Homo sapiens) [compound 267]
+++ (>50 = +++) | 123 (RPRLRDLPAL; listed as Homo sapiens) [compound 123]
+++ (>50 = +++) | 112 (YPSPLNKHSF; listed as Homo sapiens) [compound 112]
+++ (>50 = +++) | 228 (RPTAASQSRAL; listed as Homo sapiens) [compound 228]
++ (>20% = ++) | 102 (MAGPAIHTAPM; listed as Homo sapiens) [compound 102]
+++ (>50 = +++) | 211 (IPDTIASVL; listed as Homo sapiens) [compound 211]
+ (>10% = +) | 214 (LPLKFFPII; listed as Homo sapiens) [compound 214]
++++ (>75% = ++++) | 350 (RPKSTLMNF; listed as Homo sapiens) [compound 350]
+++ (>50 = +++) | 207 (VPSDITTAF; listed as Homo sapiens) [compound 207]
++ (>20% = ++) | 491 (MPEADLKRIF; listed as Homo sapiens) [compound 491]
+++ (>50 = +++) | 233 (MAYDRFIAI; listed as Homo sapiens) [compound 233]
+++ (>50 = +++) | 279 (APADEPRTVL; listed as Homo sapiens) [compound 279]
+++ (>50 = +++) | 46 (QPISGNPVTL; listed as Homo sapiens) [compound 46]
++++ (>75% = ++++) | 15 (KPGFNISIL; listed as Homo sapiens) [compound 15]
++ (>20% = ++) | 370 (AAHEFGHVL; listed as Homo sapiens) [compound 370]
+++ (>50 = +++) | 278 (LIAARGSLVL; listed as Homo sapiens) [compound 278]
++++ (>75% = ++++) | 468 (LPSLHVLVL; listed as Homo sapiens) [compound 468]
++ (>20% = ++) | 81 (IAYPSLREAAL; listed as Homo sapiens) [compound 81]
++++ (>75% = ++++) | 66 (LPMTVISVL; listed as Homo sapiens) [compound 66]

More lines, now with the values behind:

Substance | Peptide exchange
143 (YPMIPPAQL; listed as Homo sapiens) [compound 143] | +++ (>50 = +++)
255 (VPSHWMVAL; listed as Homo sapiens) [compound 255] | ++++ (>75% = ++++)
157 (RPVTGSVC; listed as Homo sapiens) [compound 157] | ++++ (>75% = ++++)
195 (NPIFGRKEL; listed as Homo sapiens) [compound 195] | +++ (>50 = +++)
132 (LPRLPVGSLV; listed as Homo sapiens) [compound 132] | ++++ (>75% = ++++)
305 (AASPVGSAL; listed as Homo sapiens) [compound 305] | +++ (>50 = +++)
270 (SPRGTTSTL; listed as Homo sapiens) [compound 270] | +++ (>50 = +++)
272 (SSPRGTTSTL; listed as Homo sapiens) [compound 272] | +++ (>50 = +++)
156 (GSRPVTGSV; listed as Homo sapiens) [compound 156] | +++ (>50 = +++)
477 (NPVPVITWYKDNRL; listed as Homo sapiens) [compound 477] | ++++ (>75% = ++++)
209 (KIEQIRAVL; listed as Homo sapiens) [compound 209] | +++ (>50 = +++)
216 (LPWEQNEQV; listed as Homo sapiens) [compound 216] | +++ (>50 = +++)
368 (NPASRLTAL; listed as Homo sapiens) [compound 368] | ++++ (>75% = ++++)
483 (KPAAAGVKKVA; listed as Homo sapiens) [compound 483] | +++ (>50 = +++)
249 (SPRSGVLL; listed as Homo sapiens) [compound 249] | +++ (>50 = +++)
310 (SPGWAQTQL; listed as Homo sapiens) [compound 310] | ++++ (>75% = ++++)
496 (MPAVSGPGPLF; listed as Homo sapiens) [compound 496] | +++ (>50 = +++)
262 (SPSTSRTPLLSSL; listed as Homo sapiens) [compound 262] | ++++ (>75% = ++++)
224 (SPIIHSILL; listed as Homo sapiens) [compound 224] | ++++ (>75% = ++++)
268 (EPLSVTASY; listed as Homo sapiens) [compound 268] | ++ (>20% = ++)
493 (LPLQQYKLV; listed as Homo sapiens) [compound 493] | + (>10% = +)
196 (RPSGTAGAAL; listed as Homo sapiens) [compound 196] | +++ (>50 = +++)
223 (KAHVRIEL; listed as Homo sapiens) [compound 223] | ++ (>20% = ++)
180 (RLRDYISSL; listed as Homo sapiens) [compound 180] | ++++ (>75% = ++++)
266 (KPYEGRVEI; listed as Homo sapiens) [compound 266] | ++++ (>75% = ++++)
302 (IPIDQILNSF; listed as Homo sapiens) [compound 302] | +++ (>50 = +++)
331 (SPDSAILKL; listed as Homo sapiens) [compound 331] | +++ (>50 = +++)
168 (SPSGQRDVSL; listed as Homo sapiens) [compound 168] | ++++ (>75% = ++++)
470 (RPNGEVKSEL; listed as Homo sapiens) [compound 470] | ++++ (>75% = ++++)
230 (DVIDDIISL; listed as Homo sapiens) [compound 230] | ++++ (>75% = ++++)
